Measured values: patent EP4714976A1 (Sunshine Lake Pharma Co., Ltd., dated 2026)

T1: FGFR4 (acro) (UniProt P22455 22-369)
T1 sequence (looked up): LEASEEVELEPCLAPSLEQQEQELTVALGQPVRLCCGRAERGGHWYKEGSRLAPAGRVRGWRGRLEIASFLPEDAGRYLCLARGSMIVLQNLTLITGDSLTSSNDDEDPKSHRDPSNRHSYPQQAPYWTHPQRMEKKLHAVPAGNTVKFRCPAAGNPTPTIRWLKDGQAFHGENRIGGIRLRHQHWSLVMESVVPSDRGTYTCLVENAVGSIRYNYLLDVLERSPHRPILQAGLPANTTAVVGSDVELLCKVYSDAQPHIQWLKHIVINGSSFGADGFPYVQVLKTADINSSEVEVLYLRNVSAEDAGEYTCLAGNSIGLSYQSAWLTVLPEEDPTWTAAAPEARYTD


Key:
FGFR2c (acro) [1] = target: T2, FGFR2c (acro) (UniProt P21802 22-377); assay: ELISA
FGFR4 (acro) [2] = target: T1, FGFR4 (acro); assay: ELISA
[3] = target: T3, recombinant cynomolgus monkey FGFR2b (cynomolgus monkey); assay: ELISA, antibody 1ug/mL
T3 construct: extracellular domain; bought; also called cynomolgus macaque FGFR2b

FGFR2c (acro) [4] = target: T2, FGFR2c (acro); assay: ELISA, antibody 10 µg/mL
FGFR4 (acro) [5] = target: T1, FGFR4 (acro); assay: ELISA, antibody 10 µg/mL
[6] = target: T4, human FGFR2b (Kaixia Biotechnology, catalog number FGR-HM1BB) (human, UniProt P21802-3 22-378); assay: BLI, antibody on AHC2 sensor
T4 construct: extracellular domain; bought; also called hFGFR2b; human FGFR2b protein

FGFR2b on KATO III cells = target: T5, FGFR2b on KATO III cells (human, UniProt P21802-3 22-822); assay: flow cytometry, KATO III cells
T5 construct: whole, on cells; also called KATO III cells that overexpress FGFR2b

[7] = target: T4, human FGFR2b (Kaixia Biotechnology, …); assay: ELISA, FGFR2b coated at 1 µg/ml

T5 sequence (P21802 other isoform, or with tags, fused parts or gaps): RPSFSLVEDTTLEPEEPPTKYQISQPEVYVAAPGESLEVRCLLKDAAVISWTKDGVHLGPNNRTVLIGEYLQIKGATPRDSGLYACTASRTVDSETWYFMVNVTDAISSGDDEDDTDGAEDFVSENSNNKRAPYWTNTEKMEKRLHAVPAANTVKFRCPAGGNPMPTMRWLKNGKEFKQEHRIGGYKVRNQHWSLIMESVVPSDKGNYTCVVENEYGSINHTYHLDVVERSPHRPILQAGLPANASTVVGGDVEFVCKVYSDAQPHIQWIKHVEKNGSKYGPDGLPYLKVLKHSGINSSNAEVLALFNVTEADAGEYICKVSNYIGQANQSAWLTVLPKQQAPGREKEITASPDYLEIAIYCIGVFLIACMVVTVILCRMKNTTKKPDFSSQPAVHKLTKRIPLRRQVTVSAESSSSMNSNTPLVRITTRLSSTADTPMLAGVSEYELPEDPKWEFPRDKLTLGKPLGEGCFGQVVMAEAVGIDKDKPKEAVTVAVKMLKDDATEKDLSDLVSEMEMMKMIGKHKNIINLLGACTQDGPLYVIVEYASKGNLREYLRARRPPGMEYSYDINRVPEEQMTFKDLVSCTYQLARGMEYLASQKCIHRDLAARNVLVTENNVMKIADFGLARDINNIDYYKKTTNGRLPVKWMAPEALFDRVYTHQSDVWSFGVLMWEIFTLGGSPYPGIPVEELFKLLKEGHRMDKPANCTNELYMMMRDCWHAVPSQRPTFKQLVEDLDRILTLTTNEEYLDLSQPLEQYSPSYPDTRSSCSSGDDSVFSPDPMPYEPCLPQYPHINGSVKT
T4 sequence (P21802 other isoform, or with tags, fused parts or gaps): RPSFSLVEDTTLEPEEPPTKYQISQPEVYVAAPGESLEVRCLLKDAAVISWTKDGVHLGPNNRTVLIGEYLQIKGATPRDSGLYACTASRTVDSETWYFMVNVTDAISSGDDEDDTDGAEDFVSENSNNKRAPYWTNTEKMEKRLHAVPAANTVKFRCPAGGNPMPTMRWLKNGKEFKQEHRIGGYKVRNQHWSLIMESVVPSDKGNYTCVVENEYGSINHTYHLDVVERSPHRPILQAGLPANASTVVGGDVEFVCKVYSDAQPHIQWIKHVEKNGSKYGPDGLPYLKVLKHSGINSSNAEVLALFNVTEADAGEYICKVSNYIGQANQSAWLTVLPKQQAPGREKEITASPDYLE
T2 sequence (P21802 22-377): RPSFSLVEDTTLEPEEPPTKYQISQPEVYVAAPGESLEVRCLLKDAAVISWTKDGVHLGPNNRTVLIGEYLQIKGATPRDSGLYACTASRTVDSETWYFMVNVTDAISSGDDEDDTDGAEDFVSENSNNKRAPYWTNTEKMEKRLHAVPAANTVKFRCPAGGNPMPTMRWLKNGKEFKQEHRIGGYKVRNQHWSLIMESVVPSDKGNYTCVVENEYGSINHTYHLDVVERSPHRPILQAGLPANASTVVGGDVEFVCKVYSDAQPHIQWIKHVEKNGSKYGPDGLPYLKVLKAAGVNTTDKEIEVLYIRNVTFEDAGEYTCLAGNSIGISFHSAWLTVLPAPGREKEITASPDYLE

Binder	binding result (FGFR2c (acro) [1])	binding result (FGFR4 (acro) [2])	OD (450 nm) value [3]	OD (450 nm) value (FGFR2c (acro) [4])	OD (450 nm) value (FGFR4 (acro) [5])	Kd [6]	koff [6]	kon [6]	EC50 (FGFR2b on KATO III cells)	EC50 [7]
3E2 scFv-Fc (Fc fusion, scFv-Fc dimer) EIQLQQSGAELVKPGASVKMSCKASGYTFSFYNMHWVKRTPGQGLEWIGLIYPDNGDTSYNQKFKGKATLTADTSSSTAYMQLSSLTSEDSAVYYCARGGLDYWGQGTSLTVSSGGGGSGGGGSGGGGSNIVMTQSQKFMSTSVGDRVSVTCKASQNVGTNVAWYQQKPGQSPKALIYSASYRYTGVPDRFTGSGSGTDFTFTISSVQAEDLAVYYCQQHYSTPYTFGGGTKLEIKESKYGPPCPPCPAPEAAGGPSVFLFPPKPKDTLMISRTPEVTCVVVDVSQEDPEVQFNWYVDGVEVHNAKTKPREEQFNSTYRVVSVLTVLHQDWLNGKEYKCKVSNKGLPSSIEKTISKAKGQPREPQVYTLPPSQEEMTKNQVSLTCLVKGFYPSDIAVEWESNGQPENNYKTTPPVLDSDGSFFLYSKLTVDKSRWQEGNVFSCSVMHEALHNHYTQKSLSLSLG	no binding (tested: 10 µg/mL)	no binding (tested: 10 µg/mL)	3.35	0.138	0.149	4.45 nM	0.0011 s⁻¹	247000 M⁻¹ s⁻¹	0.236 µg/mL	0.0235 µg/mL
3C7 scFv-Fc (Fc fusion, scFv-Fc dimer) EIQLQQSGAELVKPGASVKMSCKASGYIFRNYYIHWVKRTPGQGLEWIGAIYPDNGDTSYNQRFKVKATLTADTSSSTAYMQLSSLTSEDSAVYYCARAFTYWGQGTTLTVSSGGGGSGGGGSGGGGSDIQMIQSPASLSASVGETVTITCGASENIYGALNWYQRKQGKSPQLLIYGATNLADGMSSRFSGSGSGRQYSLKISSLHPDDVATYYCQNVLSTPYTFGGGTKLEIKESKYGPPCPPCPAPEAAGGPSVFLFPPKPKDTLMISRTPEVTCVVVDVSQEDPEVQFNWYVDGVEVHNAKTKPREEQFNSTYRVVSVLTVLHQDWLNGKEYKCKVSNKGLPSSIEKTISKAKGQPREPQVYTLPPSQEEMTKNQVSLTCLVKGFYPSDIAVEWESNGQPENNYKTTPPVLDSDGSFFLYSKLTVDKSRWQEGNVFSCSVMHEALHNHYTQKSLSLSLG	no binding (tested: 10 µg/mL)	no binding (tested: 10 µg/mL)	3.19	0.091	0.133	3.99 nM	0.00114 s⁻¹	287000 M⁻¹ s⁻¹	0.2 µg/mL	0.0166 µg/mL

Further binders by falling Kd [6], results first:

binding result (FGFR2c (acro) [1])	binding result (FGFR4 (acro) [2])	OD (450 nm) value [3]	OD (450 nm) value (FGFR2c (acro) [4])	OD (450 nm) value (FGFR4 (acro) [5])	Kd [6]	koff [6]	kon [6]	EC50 (FGFR2b on KATO III cells)	EC50 [7]	Binder
no binding (tested: 10 µg/mL)	no binding (tested: 10 µg/mL)	3.25	0.076	0.171	13.3 nM	0.00629 s⁻¹	472000 M⁻¹ s⁻¹	0.133 µg/mL	0.0273 µg/mL	1B8 scFv-Fc (Fc fusion, scFv-Fc dimer) QIQLQQSGAELVKPGASVKMSCKASGYTFASYNLHWVKQTPGQGLEWIGLIYPENGDTSYNQKFKGKATLTADTSSTTAYIQLSSLTSEDSAVYFCARGGFDYWGQGTSLTVSSGGGGSGGGGSGGGGSDIKMTQSPASLSASVGETVTITCGASENIYGALNWYQRKQGKSPQLLIYGATNLADGMSSRFSGSGSGRQYSLKISSLHPDDVATYYCQNVLSTPYTFGGGTKLEIKESKYGPPCPPCPAPEAAGGPSVFLFPPKPKDTLMISRTPEVTCVVVDVSQEDPEVQFNWYVDGVEVHNAKTKPREEQFNSTYRVVSVLTVLHQDWLNGKEYKCKVSNKGLPSSIEKTISKAKGQPREPQVYTLPPSQEEMTKNQVSLTCLVKGFYPSDIAVEWESNGQPENNYKTTPPVLDSDGSFFLYSKLTVDKSRWQEGNVFSCSVMHEALHNHYTQKSLSLSLG
no binding (tested: 10 µg/mL)	no binding (tested: 10 µg/mL)	3.34	0.118	0.096	4.5 nM	0.00152 s⁻¹	337000 M⁻¹ s⁻¹	0.132 µg/mL	0.0156 µg/mL	3E1 scFv-Fc (Fc fusion, scFv-Fc dimer) QVQLQQPGAEVVKPGASVKMSCKASGYTFTDYYIHWVKQTPGQGLEWIGAIYPDNGDTSYNQKFKVKATLTADKSSSTAYMQLSSLTSEDSAVYYCARAFTYWGQGTLVTVSAGGGGSGGGGSGGGGSDILITQSPASLSASVGETVTITCGASENIYGALNWYQRKQGKSPQLLIYGATNLADGMSSRFSGSGSGRQYSLKISSLHPDDVATYYCQNVLSTPYTFGGGTKLEIKESKYGPPCPPCPAPEAAGGPSVFLFPPKPKDTLMISRTPEVTCVVVDVSQEDPEVQFNWYVDGVEVHNAKTKPREEQFNSTYRVVSVLTVLHQDWLNGKEYKCKVSNKGLPSSIEKTISKAKGQPREPQVYTLPPSQEEMTKNQVSLTCLVKGFYPSDIAVEWESNGQPENNYKTTPPVLDSDGSFFLYSKLTVDKSRWQEGNVFSCSVMHEALHNHYTQKSLSLSLG
